Patent US20150166628A1

Molecular target: cellular IGF-1 receptors (UniProt P24062)
Experiment: cell-based or functional assay

Sequence of UniProt P24062 (P24062 31-1370): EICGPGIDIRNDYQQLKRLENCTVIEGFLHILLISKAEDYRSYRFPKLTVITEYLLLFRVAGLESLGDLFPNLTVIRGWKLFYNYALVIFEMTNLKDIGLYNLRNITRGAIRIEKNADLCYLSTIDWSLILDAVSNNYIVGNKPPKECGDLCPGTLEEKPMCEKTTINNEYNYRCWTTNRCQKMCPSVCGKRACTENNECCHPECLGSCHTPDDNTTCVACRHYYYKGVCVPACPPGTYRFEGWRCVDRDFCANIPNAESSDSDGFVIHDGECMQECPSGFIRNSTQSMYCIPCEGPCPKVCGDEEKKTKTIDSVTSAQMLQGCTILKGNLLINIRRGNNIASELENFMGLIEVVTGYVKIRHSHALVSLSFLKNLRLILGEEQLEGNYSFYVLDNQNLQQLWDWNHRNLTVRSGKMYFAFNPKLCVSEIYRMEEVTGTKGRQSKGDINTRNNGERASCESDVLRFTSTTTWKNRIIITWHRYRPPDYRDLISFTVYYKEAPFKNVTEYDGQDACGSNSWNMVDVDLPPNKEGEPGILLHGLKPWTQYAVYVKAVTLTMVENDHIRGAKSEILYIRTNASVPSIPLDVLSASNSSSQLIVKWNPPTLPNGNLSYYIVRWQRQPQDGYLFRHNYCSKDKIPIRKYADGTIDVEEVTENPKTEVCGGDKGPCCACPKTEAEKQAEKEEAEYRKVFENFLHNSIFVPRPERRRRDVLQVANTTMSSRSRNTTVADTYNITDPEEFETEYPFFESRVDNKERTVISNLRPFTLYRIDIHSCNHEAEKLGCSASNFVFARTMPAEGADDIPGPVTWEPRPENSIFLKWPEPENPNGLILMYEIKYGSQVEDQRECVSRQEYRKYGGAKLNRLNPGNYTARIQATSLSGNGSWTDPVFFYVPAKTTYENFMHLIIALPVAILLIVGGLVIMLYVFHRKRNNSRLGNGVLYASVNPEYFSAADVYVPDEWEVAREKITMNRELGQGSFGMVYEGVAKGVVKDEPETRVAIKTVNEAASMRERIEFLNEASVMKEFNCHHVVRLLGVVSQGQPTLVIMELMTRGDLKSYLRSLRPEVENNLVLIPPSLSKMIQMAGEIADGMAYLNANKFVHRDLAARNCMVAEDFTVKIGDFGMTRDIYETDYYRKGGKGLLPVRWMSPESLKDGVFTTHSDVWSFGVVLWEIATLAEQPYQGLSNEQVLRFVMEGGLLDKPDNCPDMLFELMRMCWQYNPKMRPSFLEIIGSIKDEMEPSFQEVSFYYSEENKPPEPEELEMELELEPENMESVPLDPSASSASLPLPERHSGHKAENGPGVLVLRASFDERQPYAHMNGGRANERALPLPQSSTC

HB-IGF-1 fusion protein (heparin-binding domain of human HB-EGF with a single cysteine-to-serine mutation fused to the amino-terminus of a mature IGF-1 protein) (from UniProt P05019 49-118)
sulfate incorporation into meniscal cartilage, normalized to saline injection, four days after injection (fold of saline): 1.82
sulfate incorporation into meniscal cartilage, normalized to saline injection, two days after injection (fold of saline): 2.1
